Test results taken from patent US20190330331A1 (BLOOM DIAGNOSTICS, published 2019).

Molecular target: T1, recombinant yeast-expressed His-tagged full-length AMH comprising amino acids 26-560 of human AMH (human, UniProt P03971 26-560)
T1 construct: Bought protein (Antikörper Online, ABIN2524475); also called recombinant AMH; human Anti-Müllerian hormone
T1 sequence: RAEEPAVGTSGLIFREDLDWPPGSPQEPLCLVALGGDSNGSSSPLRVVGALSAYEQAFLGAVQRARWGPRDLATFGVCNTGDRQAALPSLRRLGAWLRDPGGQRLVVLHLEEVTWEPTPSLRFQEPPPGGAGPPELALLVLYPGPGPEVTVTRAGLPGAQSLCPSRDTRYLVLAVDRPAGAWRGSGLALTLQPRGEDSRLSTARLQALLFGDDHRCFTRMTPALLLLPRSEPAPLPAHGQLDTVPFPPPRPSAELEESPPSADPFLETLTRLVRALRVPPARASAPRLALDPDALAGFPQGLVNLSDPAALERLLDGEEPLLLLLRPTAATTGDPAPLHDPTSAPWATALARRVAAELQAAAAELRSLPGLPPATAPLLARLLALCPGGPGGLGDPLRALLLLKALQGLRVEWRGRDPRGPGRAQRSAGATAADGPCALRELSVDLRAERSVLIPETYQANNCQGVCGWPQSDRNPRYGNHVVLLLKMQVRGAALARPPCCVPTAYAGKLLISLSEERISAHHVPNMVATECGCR
Assay: SPR (Biacore T200), AMH amine-coupled to the chip, antibody as analyte, bivalent-analyte model
Description: Surface-plasmon-resonance (SPR) measurements were performed using a Biacore T200 facility, control software version 2.0, and Series S sensor-chips carboxymethyl dextran chip type 5 (CMS, GE Healthcare Bio-Sciences AB, Uppsala, Sweden). The system was operating at 25° C. in running buffer HBSP (10 mmol/L 4-(2-hydroxyethyl)piperazine-1-ethanesulfonic acid (Hepes), 150 mmol/L NaCl., 0.05% Tween 20, pH 7.4). AMH was transferred to 10 mmol/L sodium acetate buffer pH 4.0 by passing it through a NAPS column (GE Healthcare) before immobilization by amine coupling (Biacore Sensor Surface Handbook). The carboxyl groups on the chip were activated with an mixture containing 200 mM 1-ethyl-3-(3-dimethylaminopropyl)-carbodiimide hydrochloride (EDC, Sigma-Aldrich) and 50 mM N hydroxysuccinimide (NHS, Fluka) for 180 s. AMH was then injected for 150 s at a concentration of 2.5 μg/mL in, at a flow of 10 μL/min and […]. Approximately 100 resonance units (RU) of AMH were covalently bound to the flow cell. Unreacted NHS esters were blocked with 1 mol/L ethanolamine pH 8.5 for 7 min. […] Association and dissociation rates and the binding constants of the antibodies were determined using the bivalent-analyte-binding model of the Biacore evaluation software (version 2.0). […]

- Kd: ~1 nM
B1: G170-FC5 (antibody, V domains shown)
VH: EVKLVESGGGLVKPGGSLKLSCAASGFIFSTYTMSWVRQTPGKRLEWVATISSGGSYTYYPDSVKGRFTISRDNAKNTLYLQMSSLRSEDTAMYYCTRHGSDYRYDGFDYWGQGTTLTVSS
VL: DILMTQSPASLSVSVGETVTITCRASENIYSNLAWYQQKQGKSPQLLVYAATNLADGVPSRFSGSGSGTQYSLKINSLQSEDFGSYYCQHFWGTPFTFGSGTKLEIK
notes: kappa primers were used for the VL; also called anti-AMH G170-FC5; anti-AMH antibody
